Source: article PMC4989169

B1: active MASP-3cf (catalytic fragment of active MASP-3 containing the CCP1-CCP2-SP domains) (enzyme)
chain: IIGGRNAEPGLFPWQALIVVEDTSRVPNDKWFGSGALLSASWILTAAHVLRSQRRDTTVIPVSKEHVTVYLGLHDVRDKSGAVNSSAARVVLHPDFNIQNYNHDIALVQLQEPVPLGPHVMPVCLPRLEPEGPAPHMLGLVAGWGISNPNVTVDEIISSGTRTLSDVLQYVKLPVVPHAECKTSYESRSGNYSVTENMFCAGYYEGGKDTCLGDSGGAFVIFDDLSQRWVVQGLVSWGGPEECGSKQVYGVYTKVSNYVDWVWEQMGLPQSVVEPQVER

Legend:
[1] = target: active MASP-3cf (catalytic fragment of active MASP-3 containing the CCP1-CCP2-SP domains) (human) (UniProt P48740); assay: enzyme inhibition assay (equilibrium KI from residual activity, photometric); Ca2+-free buffer: 20 mM HEPES, 150 mM NaCl, 0.1 mM EDTA, 0.05% Triton-X100, pH 7.4
[2] = target: active MASP-3cf (catalytic fragment of active MASP-3 containing the CCP1-CCP2-SP domains) (human) (UniProt P48740); assay: enzyme inhibition assay (equilibrium KI from residual activity, photometric); enzymes co-incubated with serial dilutions of the inhibitors for 2 h at room temperature; 20 mM HEPES, 145 mM NaCl, 5 mM CaCl2, 0.05% Triton X-100, pH 7.5; Z-Lys-SBzl substrate, read at 410 nm
[3] = target: active MASP-2cf (human); assay: as above
[4] = target: TFMI-3_HA (human) (UniProt P10646); assay: SPR; ProteOn XPR36, GLM chip; TFMI-3_HA captured on immobilised anti-HA antibody (50-80 RU), MASP-3cf injected; 20 mM HEPES, 150 mM NaCl, 5 mM CaCl2, 0.05% Triton X-100, pH 7.4; 1:1 Langmuir model

Row | Molecule | Ki [1] | Ki [2] | Ki [3] | Kd [4] | koff [4] | kon [4]
1 | TFPI-based MASP-3 Inhibitor (TFMI-3) (from UniProt P10646 121-178) (designed binder) | 9.9 nM | 11.1 nM | 75000 nM |  |  | 
2 | B1 |  |  |  | 17.7 nM | 0.00093 s⁻¹ | 52500 M⁻¹ s⁻¹
